The values below come from patent US7164008B2, “Isolated complexes of endotoxin and MD-2” (priority 2003, dated 2007).

This test has as its system human airway epithelia. In words: Endotoxin responsiveness of primary human airway epithelia (HBD-2 mRNA real time PCR, NF-κB-luciferase). Type of test: cell-based. The following applies: N. meningitidis LOS-sCD14 5 ng LOS/ml, 24 hr, HBD-2 real time PCR. On the procedure: FIG. 6 depicts endotoxin responsiveness of well-differentiated primary cultures of human airway epithelia. Polarized epithelia were treated with NTHi LOS (100 ng/ml), sCD14 (100 ng/ml) and LBP (250 ng/ml) by apical application in a 50 μl volume. Twenty-four hours later, epithelia were harvested and analyzed for HBD-2 mRNA expression by real time PCR. As depicted in FIG. 6A, apical stimulation of airway epithelia with NTHi LOS induced little change in HBD-2 MRNA expression (2 epithelia/trial, n=3 different donors, * indicates p<0.05). In contrast, IL-1β markedly induces HBD-2 mRNA. FIG. 6B depicts the polarity of epithelial responses to IL-1β and NTHi LOS. […]
FIG. 9 depicts the effects of MD-2 complementation on endotoxin responsiveness in human airway epithelia. […] Fold increase in HBD-2 mRNA expression were quantified by real time PCR. […] NF-κB-luciferase activity was measured 24 hr following endotoxin treatment (n=5 epithelia/condition, * indicates p<0.05). […] 24 hr after endotoxin treatment, HBD-2 expression was quantified by real time PCR. […]
Well differentiated human airway epithelia were treated with N. meningitidis LOS-sCD14 (5 ng LOS/ml), with or without the addition of cell culture supernatants containing rMD-2. […] HBD-2 expression was quantified by real time PCR. […]
Real-time PCR was employed to detect human β-defensin-2 and MD-2 and to quantify changes in expression. […]

B1: wt MD-2: soluble polyhistidine-tagged recombinant wild-type MD-2 in conditioned insect cell culture medium (protein)
chain: QKQYWVCNSSDASISYTYCDKMQYPISINVNPCIELKRSKGLLHIFYIPRRDLKQLYFNLYITVNTMNLPKRKEVICRGSDDDYSFCRALKGETVNTTISFSFKGIKFSKGKYKCVVEAISGSPEEMLFCLEFVILHQPNSNHHHHHH
On to B1, for which the “increase of response of human airway epithelial cultures to LOS-sCD14” value is recorded as at least 100 fold.
